Consider two molecules from US20210284749A1 (ABL BIO, published 2021).

Where a chain is given by its changes, count along the chain named.

Test [1] has as its target T1, human monomeric BCMA antigen (human, UniProt Q02223 5-54, limits assumed).
T1 construct: also called recombinant human BCMA antigens
T1 chain: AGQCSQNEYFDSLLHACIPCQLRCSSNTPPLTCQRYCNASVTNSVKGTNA
Kind of test: SPR (Biacore T200), antibody captured on protein A chip, antigen 6.25-100 nM. As to the method:
In particular, the prepared antibodies were diluted with a 1×HPS-EP buffer (GE Healthcare, BR-1006-69). The target antigen-binding affinity analysis was performed using a Biacore T200 (GE Healthcare). The antibodies were flowed onto a protein A chip at a contact time of 60 seconds, a stabilization time of 30 seconds, and a flow rate of 30 μl/min until a capture level reached 128 RU (Response Unit), thereby preparing an antibody-captured protein A chip.
The antigen was sequentially diluted with a 1×HPS-EP buffer, by 2-fold each time, from 100 nM to 6.25 nM, thereby preparing a total of […] samples. The 1×HPS-EP buffer was used as a negative control group (blank).
The prepared antigen was flowed across the antibody-captured protein A chip at a flow rate of 30 μl/min for an association time of 60 seconds, followed by a disassociation phase for 180 seconds. Regeneration was performed with a 10-mM Glycine-HCL (pH 1.5) buffer (GE Healthcare, BR-1003-54) at a flow rate of 30 μl/min for a contact time of 30 seconds.

The target of test [2] is T2, mouse BCMA (1-49) fused to the Fc region of human IgG1 (mouse; human, UniProt O88472 1-49).
T2 construct: Sino Biological Inc. 50076-M01H; also called 50076-M01H; not shown: Fc region of human IgG1
T2 chain: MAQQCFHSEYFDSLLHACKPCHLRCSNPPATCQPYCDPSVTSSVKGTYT
Kind of test: ELISA on 100 ng coated mouse BCMA, antibody titrated, anti-human Fab HRP, absorbance 450 nm. As for the experimental part: (§1) 100 ng of human, monkey, mouse, and rat BCMA antigens prepared in Example 1.1 were coated on the bottom of the plate, and then coated with 3% BSA to block nonspecific binding. Using the selected anti-BCMA IgG antibodies as primary antibodies, and the anti-human Fab HRP (1:20000 dilution) as a secondary antibody, ELISA assay was performed as described in Example 1.3.
(§2) Absorbancies at 450 nm measured with a microplate reader are shown in FIG. 3, and half maximal effective concentrations (EC₅₀) (nM) are shown in Table 9.
In general terms: In an ELISA, binding on a coated surface is turned into a signal by an enzyme label.

Test [3] has as its target T3, human BCMA expressed on cell surface (H929, OPM-2, CHOK1-hBCMA cells) (human, UniProt Q02223 1-184).
T3 construct: also called cell-surface BCMA; BCMA on cell surface
T3 sequence: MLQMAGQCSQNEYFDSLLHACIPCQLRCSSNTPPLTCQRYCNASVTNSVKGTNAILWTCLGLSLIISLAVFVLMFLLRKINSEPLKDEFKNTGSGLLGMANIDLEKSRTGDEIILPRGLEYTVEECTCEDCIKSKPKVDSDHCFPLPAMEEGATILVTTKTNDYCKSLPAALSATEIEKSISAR
Put plainly: FACS on OPM-2 cells, 10 µg/ml antibody, anti-human Fc-FITC; open histogram shifted right of the filled control. As to the method: (§3) Multiple myeloma cancer cells H929 (ATCC, CRL9068™) and OPM-2 cell line (DSMZ, ACC 50), which are known to express BCMA, were prepared, and human BCMA-overexpressed CHOK1-hBCMA cell line (constructed by ABIBio) were prepared.
(§4) 10 μg/ml of the seven IgG antibodies (B58, 5A6, 5D5, 5B5, 1H, 2G, and 5G) purified in Example 1.4 was added to the prepared cells, incubated at 4° C. for 1 hour, and then washed two times with a PBS buffer solution. The anti-human Fc-FITC was diluted in 1:400, incubated at 4° C. for 1 hour, and then washed with a PBS buffer solution. These processes were repeated. In FIGS. 2A and 2B, MFI indicates mean fluorescence intensity.

For test [4], the target named is T4, recombinant human BCMA (ELISA antigen, construct not specified) (human, UniProt Q02223 1-54).
T4 construct: Fc 1-51; Fc/His 1-51; Fc 4-48) was coated in these ELISAs; also called recombinant BCMA; recombinant protein
T4 sequence: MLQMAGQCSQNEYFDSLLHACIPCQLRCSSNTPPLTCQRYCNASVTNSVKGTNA
Put plainly: ELISA on coated recombinant human BCMA, antibody titrated, HRP anti-Fab detection, absorbance 450 nm. As to the method:
Specific binding abilities of the anti-BCMA IgG antibodies isolated in Example 1.4 to recombinant BCMA protein were analyzed by ELISA.
Using recombinant human BCMA or monkey BCMA as an antigen, and HRP-conjugated Fab polychronal antibody reagent (Pierce, 31414) as a secondary antibody, ELISA was performed as described in Example 1.3.

Test [5] addresses T3, human BCMA expressed on cell surface …. Put plainly: FACS on H929 cells, 10 µg/ml antibody, anti-human Fc-FITC; open histogram shifted right of the filled control. As to the method:
as §3, §4

Test [6] addresses T5, rat BCMA (1-49) fused to the Fc region of human IgG1 (rat; human).
T5 construct: Sino Biological Inc. 80156-R01H; also called 80156-R01H; not shown: Fc region of human IgG1
T5 chain: T2 chain with Q4R, H22R, T31P, V40M, K45R
Put plainly: ELISA on 100 ng coated rat BCMA, antibody titrated, anti-human Fab HRP, absorbance 450 nm. As for the experimental part:
as §1, §2

B1: anti-BCMA IgG antibody 5D5 (antibody, V domains shown)
VH: EVQLLESGGGLVQPGGSLRLSCAASGFTFSDYGLSWVRQAPGKGLEWVSLIDSSGSSTFYADSVKGRFTISRDNSKNTLYLQMNSLRAEDTAVYYCAKEHGLFDSWGQGTLVTVSS
VL: EIVLTQSPGTLSLSPGERATLSCKASQDIDDDINWYQQKPGQAPRLLIYDASLRATGIPDRFSGSGSGTDFTLTISRLEPEDFAVYYCQQSLRTPITFGQGTKLEIKR
notes: also called 5D5 WT; 5D5 antibody
As a reminder, the Kd is the constant that tells how readily two partners part at equilibrium. As usually defined, the koff is a measure of how fast the partners let go of each other. Higher therefore signals fast dissociation. By kon is commonly meant the rate constant with which the complex forms. Low readings indicate slow association, high ones fast association. A word on the EC50 (read off the curve): it is the concentration needed to bring the measured effect to its halfway point. B1 yielded a Kd in test [1] of 22.8 nM. In addition, in test [1], the koff worked out at 0.0601 s⁻¹. This molecule also came in with a kon in test [1] of 2.63e+06 M⁻¹ s⁻¹. In addition, the concentration giving a half-maximal response (EC50 (read off the curve)) in test [2] was around 0.01 µg/mL; in test [4] it was around 0.1 µg/mL; in test [6], around 0.02 µg/mL. Moreover, the MFI amounted to 21.8 in test [3] and 29.9 in test [5].

B2: anti-BCMA IgG antibody 5A6 (antibody, V domains shown)
VH: EVQLLESGGGLVQPGGSLRLSCAASGFTFSNYGVHWVRQAPGKGLEWVSYISYSGGTYYNPSLKSRFTISRDNSKNTLYLQMNSLRAEDTAVYYCARDSDDFGFDYWGQGTLVTVSS
VL: QSVLTQPPSASGTPGQRVTISCQGDSLRSYYVNWYQQLPGTAPKLLIYDHSKRPTGVPDRFSGSKSGTSASLAISGLRSEDEADYYCQSYDSSTVVFGGGTKLTVLG
notes: also called 5A6 WT; 5A6 antibody
As for B2, in test [1], the Kd worked out at 62.4 nM, the off-rate constant (koff) turned out to be 0.0249 s⁻¹ and the association rate constant (kon) is 399000 M⁻¹ s⁻¹. Further, the binding result in test [2] is listed as “no binding (tested: about 30 µg/ml)”. The MFI in test [3] was determined as 54.7. Moreover, in test [4], the “EC50 (read off the curve)” value is around 0.1 µg/mL. For the same molecule, the MFI in test [5] came out at 100. For the same molecule, in test [6], the binding result is “no binding (tested: about 30 µg/ml)”.
